Assay results published in US20250250593A1, “METHOD FOR PREPARING ALPHA-BRANCHED BETA'-HYDROXY CARBONYL COMPOUNDS BY ENZYMATIC-CATALYZED REDUCTIVE ALDOL REACTION” (Max-Planck-Gesellschaft zur Förderung der Wissenschaften …, priority 2022, published 2025).

Legend:
KsCcr [1] = test: HPLC analysis of reaction products: 2-HMB-CoA formed over total products from crotonyl-CoA and formaldehyde; format: biochemical, Kitasatospora setae; details: for Ratio of 2-HMB-CoA formed over total products: triplicates, mean ± standard deviation, values given as %
From the text: KsCcr wild-type (WT) natively promotes the NADPH-dependent reductive carboxylation of crotonyl-CoA into ethylmalonyl-CoA. […] Under these conditions, neither ethylmalonyl-CoA (carboxylation product) nor butyryl-CoA (reduction side product) were detected with LC-MS (see Table 2 further below). […] The compound was isolated and its structure was further verified using 2-dimensional NMR and high-resolution MS experiments. […] The newly introduced carbon was also observed in the ^13C-NMR experiment, confirming formation of aldol product 2-HMB-CoA by KsCcr.
The reaction was diluted 10 times into 5% methanol/Buffer 8.1 and analyzed by HPLC over an Agilent Eclipse Plus C18, 3.5 μm 100 Å, 100×2.1 mm, […] column using 5% to 30% acetonitrile gradient over 7.5 min with 25 mM ammonium formate pH=8.1 as the aqueous phase.

KsCcr [2] = test: Reductive aldol reaction with longer chain aldehydes (acetaldehyde, propionaldehyde): product share and diastereomeric ratio by LC-MS; format: biochemical, Kitasatospora setae
Method: The reaction catalyzed by KsCcr generates an (S)-configured stereocenter at the α-position of the reaction product. When using higher substituted aldehydes, a second stereocenter would be generated at the β-position, which would be highly interesting for synthetic organic applications. It was first tested, whether KsCcr would accept longer chain aldehydes. Indeed, in the presence of 500 mM acetaldehyde, the enzyme formed 35% of 2-ethyl-3-hydroxybutyryl-CoA (2-EHB-CoA) over total products, with substantial amounts of butyryl-CoA as a side product. To improve yield, an acyl-CoA oxidase was used to continually recycle the side product butyryl-CoA back into the substrate crotonyl-CoA. With this proof-reading strategy the yield of the reaction could be increased up to 72%. High resolution mass spectrometry together with ^1H^−1H COSY and ^13C-NMR experiments confirmed the structure of 2-EHB-CoA.
To determine the stereochemistry at the β-position the reaction was analyzed by LC-MS and compared the retention times to chemically synthesized (2S,3R)-EHB-CoA and (2S,3S)-EHB-CoA standards.
Determination of CoA esters was performed using a HRES-LC-MS. The chromatographic separation was performed on an Thermo Scientific Vanquish HPLC System using a Kinetex Evo C18 column ([…], 100 Å, 1.7 μm, Phenomenexc) equipped with a 20×2.1 mm guard column of similar specificity at a constant eluent flow rate of 0.3 mL/min and a column temperature of 40° C. with eluent A being 50 mM ammonium formate pH=8.1 and eluent B being MeOH (Honeywell) The injection volume was 1 μl. […]

| Molecule | Ratio of 2-HMB-CoA formed over total products (KsCcr [1]; 5 mM formaldehyde) | 2-HMB-CoA produced (reductive aldol product) (KsCcr [1]; 75 mM formaldehyde) [%] | Ratio of 2-HMB-CoA formed over total products (KsCcr [1]; 75 mM formaldehyde) | aldol product generated (KsCcr [1]; ambient conditions, CO2 not strictly avoided) [%] | yield of the reaction (2-EHB-CoA) (KsCcr [2]; 500 mM acetaldehyde with acyl-CoA oxidase recycling butyryl-CoA to crotonyl-CoA (proof-reading)) | 2-ethyl-3-hydroxybutyryl-CoA (2-EHB-CoA) over total products (KsCcr [2]; 500 mM acetaldehyde, butyryl-CoA as side product) [%] | conversion with propionaldehyde (KsCcr [2]; compared with formaldehyde or acetaldehyde, product detected by MS) |
| --- | --- | --- | --- | --- | --- | --- | --- |
| KsCcr variant His365Asn: KsCcr active site variant His365Asn, SEQ ID NO: 19 (protein, KsCcr variant His365Asn) MQEILDAILSGDAASADYAALALPESYRAVTLHKGEERMFDGLASRDKDPRKSLHLDDVPLPELGPGEALVAVMASSVNYNTVWSSIFEPVSTFGFLERYGRLSPLTARHDLPYHVLGSDLAGVVLRTGAGVNAWKPGDEVVAHCLSVELESPDGHNDTMMDPEQRIWGFETNFGGLAQLALVKTNQLLPKPKHLTWEEAASPGLVNSTAYRQLVSRNGAGLKQGDNVLIWGASGGLGSYATQYALAGGATPICVVSSPRKADICRAMGAEAIIDRSAEGYRFWKDEHHQDPREWKRLGGKIREFTGGEDVDIVFEHPGRETFGASVYVTRKGGTIVTCASTSGYMHQYDNRYLWMSLKRIVGSNFANYREAFEANRLVAKGKIHPTLSKVYALEETGQAALDVHHNKHQGKVGVLCLAPREGLGVTDPELRSKHLTKINAFRNV | 42 ± 1 | 89 | 89 ± 0 |  |  |  |  |
| KsCcr variant Ser119Ala: KsCcr variant Ser119Ala, SEQ ID NO: 22 (protein, KsCcr variant Ser119Ala) MQEILDAILSGDAASADYAALALPESYRAVTLHKGEERMFDGLASRDKDPRKSLHLDDVPLPELGPGEALVAVMASSVNYNTVWSSIFEPVSTFGFLERYGRLSPLTARHDLPYHVLGADLAGVVLRTGAGVNAWKPGDEVVAHCLSVELESPDGHNDTMMDPEQRIWGFETNFGGLAQLALVKTNQLLPKPKHLTWEEAASPGLVNSTAYRQLVSRNGAGLKQGDNVLIWGASGGLGSYATQYALAGGATPICVVSSPRKADICRAMGAEAIIDRSAEGYRFWKDEHHQDPREWKRLGGKIREFTGGEDVDIVFEHPGRETFGASVYVTRKGGTIVTCASTSGYMHQYDNRYLWMSLKRIVGSHFANYREAFEANRLVAKGKIHPTLSKVYALEETGQAALDVHHNKHQGKVGVLCLAPREGLGVTDPELRSKHLTKINAFRNV | 37 ± 3 | 83 | 83 ± 0 |  |  |  |  |
| KsCcr variant Glu171Ala: KsCcr variant Glu171Ala, SEQ ID NO: 24 (protein, KsCcr variant Glu171Ala) MQEILDAILSGDAASADYAALALPESYRAVTLHKGEERMFDGLASRDKDPRKSLHLDDVPLPELGPGEALVAVMASSVNYNTVWSSIFEPVSTFGFLERYGRLSPLTARHDLPYHVLGSDLAGVVLRTGAGVNAWKPGDEVVAHCLSVELESPDGHNDTMMDPEQRIWGFATNFGGLAQLALVKTNQLLPKPKHLTWEEAASPGLVNSTAYRQLVSRNGAGLKQGDNVLIWGASGGLGSYATQYALAGGATPICVVSSPRKADICRAMGAEAIIDRSAEGYRFWKDEHHQDPREWKRLGGKIREFTGGEDVDIVFEHPGRETFGASVYVTRKGGTIVTCASTSGYMHQYDNRYLWMSLKRIVGSHFANYREAFEANRLVAKGKIHPTLSKVYALEETGQAALDVHHNKHQGKVGVLCLAPREGLGVTDPELRSKHLTKINAFRNV | 43 ± 0 |  | 89 ± 0 |  |  |  |  |
| KsCcr variant Thr82Asp: KsCcr variant Thr82Asp, SEQ ID NO: 21 (protein, KsCcr variant Thr82Asp) MQEILDAILSGDAASADYAALALPESYRAVTLHKGEERMFDGLASRDKDPRKSLHLDDVPLPELGPGEALVAVMASSVNYNDVWSSIFEPVSTFGFLERYGRLSPLTARHDLPYHVLGSDLAGVVLRTGAGVNAWKPGDEVVAHCLSVELESPDGHNDTMMDPEQRIWGFETNFGGLAQLALVKTNQLLPKPKHLTWEEAASPGLVNSTAYRQLVSRNGAGLKQGDNVLIWGASGGLGSYATQYALAGGATPICVVSSPRKADICRAMGAEAIIDRSAEGYRFWKDEHHQDPREWKRLGGKIREFTGGEDVDIVFEHPGRETFGASVYVTRKGGTIVTCASTSGYMHQYDNRYLWMSLKRIVGSHFANYREAFEANRLVAKGKIHPTLSKVYALEETGQAALDVHHNKHQGKVGVLCLAPREGLGVTDPELRSKHLTKINAFRNV | 14 ± 1 | 57 | 57 ± 1 |  |  |  |  |
| KsCcr variant Asn81Asp: KsCcr active site variant Asn81Asp, no SEQ ID given (protein) MQEILDAILSGDAASADYAALALPESYRAVTLHKGEERMFDGLASRDKDPRKSLHLDDVPLPELGPGEALVAVMASSVNYDTVWSSIFEPVSTFGFLERYGRLSPLTARHDLPYHVLGSDLAGVVLRTGAGVNAWKPGDEVVAHCLSVELESPDGHNDTMMDPEQRIWGFETNFGGLAQLALVKTNQLLPKPKHLTWEEAASPGLVNSTAYRQLVSRNGAGLKQGDNVLIWGASGGLGSYATQYALAGGATPICVVSSPRKADICRAMGAEAIIDRSAEGYRFWKDEHHQDPREWKRLGGKIREFTGGEDVDIVFEHPGRETFGASVYVTRKGGTIVTCASTSGYMHQYDNRYLWMSLKRIVGSHFANYREAFEANRLVAKGKIHPTLSKVYALEETGQAALDVHHNKHQGKVGVLCLAPREGLGVTDPELRSKHLTKINAFRNV | 1 ± 0 |  | 11 ± 0 |  |  |  |  |
| KsCcr WT: wild type crotonyl-CoA carboxylase/reductase obtained from Kitasatospora setae, SEQ ID NO: 1 (protein, Kitasatospora setae KsCCR crotonyl-CoA carboxylase/reductase) MQEILDAILSGDAASADYAALALPESYRAVTLHKGEERMFDGLASRDKDPRKSLHLDDVPLPELGPGEALVAVMASSVNYNTVWSSIFEPVSTFGFLERYGRLSPLTARHDLPYHVLGSDLAGVVLRTGAGVNAWKPGDEVVAHCLSVELESPDGHNDTMMDPEQRIWGFETNFGGLAQLALVKTNQLLPKPKHLTWEEAASPGLVNSTAYRQLVSRNGAGLKQGDNVLIWGASGGLGSYATQYALAGGATPICVVSSPRKADICRAMGAEAIIDRSAEGYRFWKDEHHQDPREWKRLGGKIREFTGGEDVDIVFEHPGRETFGASVYVTRKGGTIVTCASTSGYMHQYDNRYLWMSLKRIVGSHFANYREAFEANRLVAKGKIHPTLSKVYALEETGQAALDVHHNKHQGKVGVLCLAPREGLGVTDPELRSKHLTKINAFRNV | 72 ± 1± |  | 96 ± 0 | > 95 | up to 72% | 35 | strongly decreased |
